These results are taken from patent US20140155325A1 (Janssen / Centocor, published 2014).

The target in test [1] is T1, human EGFR (epidermal growth factor receptor) on cells (human, UniProt P00533 25-1210).
T1 construct: Endogenous EGFR of human tumor cell lines; also called HER-1; Erb-B1
Put plainly: A431 cell binding, anti-His-Alexa488.

Test [2] addresses human EGFR (epidermal growth factor receptor) on cells (human) (UniProt P00533).
For test [3] the target is unchanged. Nature of the test: cell-based or functional assay.
For test [4] the target is unchanged. This is another data set of the same source.
Test [5] shares this target. The source holds these as a separate data set.
For test [6], the target named is human c-Met (hepatocyte growth factor receptor) on cells (human, UniProt P08581 25-1390). Put plainly: cell-based or functional assay.
In test [7] the target is recombinant human c-Met Fc chimera (human) (UniProt P08581). Nature of the test: HGF competition (biotinylated HGF on coated c-Met-Fc).
Test [8] has the same target. Nature of the test: SPR (ProteOn), c-Met-Fc captured by anti-human Fc.
Test [9] has the same target. Nature of the test: SPR (ProteOn), protocol of Example 3.

B1: P54CR4-31 (designed binder)
chain: LPAPKNLVVSEVTEDSLRLSWTAPDAAFDSFLIQYQESEKVGEAINLTVPGSERSYDLTGLKPGTEYTVSIYGVLGSYVFEHDVMLPLSAEFTT
notes: not shown: C-terminal poly-histidine tag
B1: the concentration for a half-maximal effect (EC50) in test [1] was above 20000 nM.

B2: ECB5 (designed binder, not shown: small tags and cut ends)
chain: MLPAPKNLVVSEVTEDSARLSWADPHGFYDSFLIQYQESEKVGEAIVLTVPGSERSYDLTGLKPGTEYTVSIYGVHNVYKDTNMRGLPLSAIFTTGGGGSGGGGSGGGGSGGGGSMLPAPKNLVVSRVTEDSARLSWTAPDAAFDSFWIRYFEFLGSGEAIVLTVPGSERSYDLTGLKPGTEYVVNIMGVKGGKISPPLSAIFTT
B2: the IC50, inhibition of EGF-stimulated EGFR phosphorylation (relative pEGFR, RCLU) in H292 cells, +50 ng/mL EGF [+50ng/mL EGF), IC50 table] in test [2] worked out at 76.6 nM. In test [3], this molecule came in with a fold decrease of the IC50 for inhibition of EGFR phosphorylation in NCI-H441 cells against monospecific P53A1R5-17v2 of 30 fold. In test [4], this molecule gave an IC50, inhibition of EGF-stimulated EGFR phosphorylation (relative pEGFR, RCLU) in H441 cells, +10 ng/mL EGF [+10ng/mL EGF), IC50 table] of 2.3 nM. In addition, in test [5], the IC50, inhibition of EGF-stimulated EGFR phosphorylation (relative pEGFR, RCLU) in H596 cells, +2.5 ng/mL EGF [+2.5ng/mL EGF), IC50 table] was 83.2 nM.

B3: Bispecific Centyrin (83-H9) (designed binder)
chain: MLPAPKNLVVSEVTEDSARLSWDDPWAFYESFLIQYQESEKVGEAIVLTVPGSERSYDLTGLKPGTEYTVSIYGVHNVYKDTNMRGLPLSAIFTTGGGGSGGGGSGGGGSGGGGSMLPAPKNLVVSRVTEDSARLSWTAPDAAFDSFWIRYFEFLGSGEAIVLTVPGSERSYDLTGLKPGTEYVVQIIGVKGGHISLPLSAIFTT
As for B3, the “IC50, inhibition of HGF-stimulated c-Met phosphorylation (relative pc-Met, RCLU) in H596 cells, +5 ng/mL HGF [+5ng/mL HGF), IC50 table]” value in test [6] is 0.0789 nM.

B4: P114AR7P93-H9 (designed binder, not shown: small tags and cut ends)
chain: LPAPKNLVVSRVTEDSARLSWTAPDAAFDSFWIRYFEFLGSGEAIVLTVPGSERSYDLTGLKPGTEYVVQIIGVKGGHISLPLSAIFTT
As to B4, the “IC50, inhibition of HGF-stimulated c-Met phosphorylation (relative pc-Met, RCLU) in H596 cells, +5 ng/mL HGF [+5ng/mL HGF), IC50 table]” value in test [6] came to 80.8 nM. Also, the half-inhibitory concentration (IC50) in test [7] was 2.9 nM. Moreover, the Kd in test [8] was 3.3 nM.

B5: ECB96 (designed binder, not shown: small tags and cut ends)
chain: MLPAPKNLVVSEVTEDSARLSWDDPWAFYESFLIQYQESEKVGEAIVLTVPGSERSYDLTGLKPGTEYTVSIYGVHNVYKDTNIRGLPLSAIFTTAPAPAPAPAPLPAPKNLVVSRVTEDSARLSWTAPDAAFDSFWIRYFEFVSKGDAIVLTVPGSERSYDLTGLKPGTEYVVNILGVKGGSISPPLSAIFTT
In the case of B5, in test [9], the dissociation constant Kd worked out at 22.1 nM.

B6: ECB106 (designed binder, not shown: small tags and cut ends)
chain: MLPAPKNLVVSEVTEDSARLSWDDPHAFYESFLIQYQESEKVGEAIVLTVPGSERSYDLTGLKPGTEYTVSIYGVHNVYKDTNIRGLPLSAIFTTAPAPAPAPAPLPAPKNLVVSRVTEDSARLSWTAPDAAFDSFWIRYFEFLGSGEAIVLTVPGSERSYDLTGLKPGTEYVVNILGVKGGKISPPLSAIFTT
Consider B6, for which the Kd in test [9] was 5.1 nM.

B7: ECB108 (designed binder, not shown: small tags and cut ends)
chain: MLPAPKNLVVSEVTEDSARLSWDDPHAFYESFLIQYQESEKVGEAIVLTVPGSERSYDLTGLKPGTEYTVSIYGVHNVYKDTNIRGLPLSAIFTTAPAPAPAPAPLPAPKNLVVSRVTEDSARLSWTAPDAAFDSFWIRYFEFVSKGDAIVLTVPGSERSYDLTGLKPGTEYVVNILGVKGGSISPPLSAIFTT
As for B7, the Kd in test [9] is 25.5 nM.

B8: ECB107 (designed binder, not shown: small tags and cut ends)
chain: MLPAPKNLVVSEVTEDSARLSWDDPHAFYESFLIQYQESEKVGEAIVLTVPGSERSYDLTGLKPGTEYTVSIYGVHNVYKDTNIRGLPLSAIFTTAPAPAPAPAPLPAPKNLVVSRVTEDSARLSWTAPDAAFDSFWIRYFEFVGSGEAIVLTVPGSERSYDLTGLKPGTEYVVNILGVKGGSISPPLSAIFTT
Turning to B8, in [9], the dissociation constant (Kd) came out at 9 nM.
